Residue numbers refer to the chain shown, from its start. Numbers in names are those of the source.
T1: TNFR1 (Homo sapiens, UniProt P19438)
T1 chain: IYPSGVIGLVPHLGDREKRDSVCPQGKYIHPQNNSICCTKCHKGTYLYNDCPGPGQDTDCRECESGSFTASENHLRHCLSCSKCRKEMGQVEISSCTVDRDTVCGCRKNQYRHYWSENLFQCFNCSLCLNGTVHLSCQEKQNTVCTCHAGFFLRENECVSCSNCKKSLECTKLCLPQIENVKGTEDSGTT

B1: Q4R (designed binder)
chain: MTLRELLREEALRRAEAEAFRYALELLAEKFPEQKEYLLDLAEEIESQIRSLSGVDVEDVRKFLDKEWAWVKELLAEHPAELAEVEAARAARLAELRAEVEAKVAA
B2: V71S (designed binder)
chain: B1 chain with R4Q, V71S
B3: L64M (designed binder)
chain: B1 chain with R4Q, L64M
B4: A83V (designed binder)
chain: B1 chain with R4Q, A83V
B5: G54C (designed binder)
chain: B1 chain with R4Q, G54C
B6: Y37H (designed binder)
chain: B1 chain with R4Q, Y37H
B7: M1T (designed binder)
chain: B1 chain with M1T, R4Q
B8: F31L (designed binder)
chain: B1 chain with R4Q, F31L
B9: A76P (designed binder)
chain: B1 chain with R4Q, A76P
B10: A87V (designed binder)
chain: B1 chain with R4Q, A87V
B11: E36C (designed binder)
chain: B1 chain with R4Q, E36C
B12: E9C (designed binder)
chain: B1 chain with R4Q, E9C
B13: K72R (designed binder)
chain: B1 chain with R4Q, K72R
B14: E67K (designed binder)
chain: B1 chain with R4Q, E67K
B15: S51K (designed binder)
chain: B1 chain with R4Q, S51K
B16: A90F (designed binder)
chain: B1 chain with R4Q, A90F
B17: E86R (designed binder)
chain: B1 chain with R4Q, E86R
B18: R97L (designed binder)
chain: B1 chain with R4Q, R97L
B19: R50F (designed binder)
chain: B1 chain with R4Q, R50F
B20: R61T (designed binder)
chain: B1 chain with R4Q, R61T
B21: G54S (designed binder)
chain: B1 chain with R4Q, G54S
B22: A80V (designed binder)
chain: B1 chain with R4Q, A80V
B23: A105W (designed binder)
chain: B1 chain with R4Q, A105W
B24: S51P (designed binder)
chain: B1 chain with R4Q, S51P

Biological target: T1, TNFR1
Test: yeast display SC50

apparent Kd (screen) [nM] | Binder
0.49 | B1
2.48 | B2
0.653 | B3
0.718 | B4
24.4 | B5
11.4 | B6
0.49 | B7
0.869 | B8
2.05 | B9
0.539 | B10
0.539 | B11
0.405 | B12
0.869 | B13
2.73 | B14
1.27 | B15
0.869 | B16
1.27 | B17
0.653 | B18
1.16 | B19
0.593 | B20
0.956 | B21
0.869 | B22
0.869 | B23
0.593 | B24
